In publication PMC2943563:

Target: myc-tagged murine CARD11 L225LI (murine) (UniProt Q8CIS0)
Assay: co-IP

“myc-tagged murine CARD11 L225LI (from UniProt Q8CIS0 1-1159) (natural protein)” was tested, and the fold increase in apparent oligomerization against wild-type CARD11 was 3 fold.
